Assay results published in publication doi:10.1101/2023.08.16.553618, “Structure of C. elegans TMC-2 complex suggests roles of lipid-mediated subunit contacts in mechanosensory transduction” (bioRxiv, 2023).

Target: the molecule itself
Experiment: cryo-EM structure; single particle cryo-EM of the native TMC-2 complex isolated from worms in GDN with 1 mM CaCl2; cis-dimeric particles; 2 nm carbon grids

B1: C. elegans TMC-2 (transmembrane channel-like protein 2), native, with C-terminal mVenus-3C-3xFLAG (natural protein, UniProt Q11069 1-1203, looked up)
chain: MPKSGAHQPLVRHDTDDGGETGQSVKSLADVSEEEIDSRMSRRSSVIADLLSLFRRSSSVLVRPHTRLGNPNFDDDDDEFDEEDDKEASKDRILKKIQQKKEIIQKLRGQPWYMKRKRRTLKVAQKHLQQQEAKVSKARLYKAEAGRRLTQASRWLDNLKIYLIPWEAKIRKIESHFGSVVSSYFTFHRWVLGVNITITFIMCMFVVIPEWLADSRTQFGDDRYNKTKAIKVMPPAVRARADELSTVWDFGGYFQYSLLFYGFYSKETFFGETIKYRVPVAYFFCNIFILGFSLFIILRKMAANNRRGTLSSGKTQQYLFNWKAFTGWDYTIGNPETAGNVYMANVIKFREAINDDKQKPSDKHPWIRFVARVLTNLFICAMYVFSIWAIMQCGTLKGEHFFAQNATAITISLITLVFPNIFDLLGKIEKLHPRNALRFQLGRVLVLYILNYYTLIYSLMLQLEHLQKEKNASDNPISALGHPGDAIGRTIRETVLPRYPVDNNPHTYYSYAPVTTTPIPATSSWTTVLPDFGPFGVYNPKASVTKDDTVFSSPVVETHMFGPNSDWNETTVNAASPTGATTRASLRMSQGGLCWETIIGQEITKLVTMDLYMTVASIFLIDFLRGLACRYLNLYWPWDLERTFPEYGEFKVAENVLHLVNNQGMIWLGLFFVPLLPMLNNIKLIILMYIRGWAAMTCNVPASQIFRASRSSNFFFALLILFLFLCTLPVGFVIASKTPSKSCGPFGNQSFFYSVITDVLHENLDKTLVNGIKYSLSPGIIIPVLVLLSLVIYFLIAMVTGLSQANQDLSFQLMVERTEEKKKIFELAGGKKKKSKDNTFGKQKPKQLLPPPTKGVSSDDDSQHNRSTAKSVSGRQFVPSLGSVSEVDHSTGEEQSSDSESTTSSLPPKLSLRQRFLVCIGWADPNKYGRHDDIEMEEGGGRLRELSTGSETDSDDEDSEKSNRDMSYRTAIQSFDQNSQSASASSSKSTTTAPSNSEMRIEITENPLHTYITPLRIEKKSSASSSSSSHQPSSSIEKQAARRLLQPISTTHNIRYGVATVENSSQDPTRPPSTDDSLGDPALHEPLWANLNPHSSYTSAMMSPIMNEVMSNDETTDDEKGRLIPDRPPIPHSPRELKRLKREKDQQSESGSKPSTPRPPRFRISMSPPRKPPSEKNDSDSSNRKYEMRVEKSPKKPKKSDND
modifications: N-glycans at N225 and N748 (density features)
notes: TMC-2, C. elegans, Wormbase B0416.1a; tag inserted prior to the stop codon of the endogenous gene; A 3C (PreScission) site lies between mVenus and 3xFLAG; The complex was captured by the 3xFLAG tag and eluted by 3C cleavage, so the sample for SEC, mass spectrometry and cryo-EM has mVenus but no 3xFLAG; Two copies stand in the cis-dimeric complex; Not modelled in 8TKP: M1-A88, A472-T582, …
  stoichiometry N: 2
